Laboratory results reported in article PMC10786891, “Massively parallel profiling of RNA-targeting CRISPR-Cas13d”.
Where a chain is given by its changes, count along the chain named. Names and notes keep the numbering of the source.

T1: EsCas13d, nuclease-dead (Eubacterium siraeum, UniProt B0MS50, R295A;H300A;R849A;H854A)
T1 sequence: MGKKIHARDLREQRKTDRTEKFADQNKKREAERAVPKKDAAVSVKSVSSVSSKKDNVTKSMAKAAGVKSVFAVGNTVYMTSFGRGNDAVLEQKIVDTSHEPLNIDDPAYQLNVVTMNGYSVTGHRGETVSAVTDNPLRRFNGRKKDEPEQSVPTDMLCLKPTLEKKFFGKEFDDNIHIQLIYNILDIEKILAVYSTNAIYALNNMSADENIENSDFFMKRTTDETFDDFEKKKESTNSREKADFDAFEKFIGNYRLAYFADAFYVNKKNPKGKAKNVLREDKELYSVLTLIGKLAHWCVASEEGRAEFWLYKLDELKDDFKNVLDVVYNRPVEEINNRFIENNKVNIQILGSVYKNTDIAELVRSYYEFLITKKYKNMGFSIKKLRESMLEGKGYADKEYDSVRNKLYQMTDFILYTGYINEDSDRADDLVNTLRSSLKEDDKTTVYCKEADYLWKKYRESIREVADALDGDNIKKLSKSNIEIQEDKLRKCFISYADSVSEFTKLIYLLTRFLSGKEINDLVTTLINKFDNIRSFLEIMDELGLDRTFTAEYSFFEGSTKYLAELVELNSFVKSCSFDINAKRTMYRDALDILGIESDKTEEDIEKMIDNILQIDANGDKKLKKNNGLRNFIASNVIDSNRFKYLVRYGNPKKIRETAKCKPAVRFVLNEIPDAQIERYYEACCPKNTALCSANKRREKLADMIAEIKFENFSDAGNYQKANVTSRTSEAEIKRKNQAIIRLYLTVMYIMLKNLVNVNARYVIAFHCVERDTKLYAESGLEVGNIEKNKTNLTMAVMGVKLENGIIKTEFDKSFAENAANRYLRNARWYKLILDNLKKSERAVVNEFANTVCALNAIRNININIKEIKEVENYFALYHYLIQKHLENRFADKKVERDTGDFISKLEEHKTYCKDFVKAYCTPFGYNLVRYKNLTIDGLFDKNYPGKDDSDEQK

B1: target 2 MT 5'PFS UAA 3'PFS AUC (mixed)
RNA 1: CACCCGUGCAAAAUUGCAGGGGUCUAAAACCUUCUCCAAAUUGUUUCAUCCU
RNA 2: GGGAAUGGAUCCACAUCUACGAAUUCUAAAGGAUGAAACAAUUUGGAGAAGAUCAGAUCGGAAGAGCACACGU
B2: target 2 MT 5'PFS AGC 3'PFS CUG (mixed)
RNA 1: B1 RNA 1
RNA 2: B1 RNA 2 with U27A, A28G, A29C, A52C, C54G
B3: target 2 MT 5'PFS GAU 3'PFS AUC (mixed)
RNA 1: B1 RNA 1
RNA 2: B1 RNA 2 with U27G, A29U
B4: target 2 MT 5'PFS GGC 3'PFS AGG (mixed)
RNA 1: B1 RNA 1
RNA 2: B1 RNA 2 with U27G, A28G, A29C, U53G, C54G
B5: target 2 MT 5'PFS AAC 3'PFS CAC (mixed)
RNA 1: B1 RNA 1
RNA 2: B1 RNA 2 with U27A, A29C, A52C, U53A
B6: target 2 MT 5'PFS AAC 3'PFS CAA (mixed)
RNA 1: B1 RNA 1
RNA 2: B1 RNA 2 with U27A, A29C, A52C, U53A, C54A
B7: target 2 MT 5'PFS AGC 3'PFS CUA (mixed)
RNA 1: B1 RNA 1
RNA 2: B1 RNA 2 with U27A, A28G, A29C, A52C, C54A
B8: target 2 MT 5'PFS AAG 3'PFS UCC (mixed)
RNA 1: B1 RNA 1
RNA 2: B1 RNA 2 with U27A, A29G, A52U, U53C
B9: target 2 MT 5'PFS GGC 3'PFS AGA (mixed)
RNA 1: B1 RNA 1
RNA 2: B1 RNA 2 with U27G, A28G, A29C, U53G, C54A
B10: target 2 MT 5'PFS GCU 3'PFS AAA (mixed)
RNA 1: B1 RNA 1
RNA 2: B1 RNA 2 with U27G, A28C, A29U, U53A, C54A
B11: target 2 MT 5'PFS UAC 3'PFS CUC (mixed)
RNA 1: B1 RNA 1
RNA 2: B1 RNA 2 with A29C, A52C
B12: target 2 MT 5'PFS GAU 3'PFS AUG (mixed)
RNA 1: B1 RNA 1
RNA 2: B1 RNA 2 with U27G, A29U, C54G
B13: target 2 MT 5'PFS GGC 3'PFS AGU (mixed)
RNA 1: B1 RNA 1
RNA 2: B1 RNA 2 with U27G, A28G, A29C, U53G, C54U
B14: target 2 MT 5'PFS UAA 3'PFS AUA (mixed)
RNA 1: B1 RNA 1
RNA 2: B1 RNA 2 with C54A
B15: target 2 MT 5'PFS UAC 3'PFS CUU (mixed)
RNA 1: B1 RNA 1
RNA 2: B1 RNA 2 with A29C, A52C, C54U
B16: target 2 MT 5'PFS GCU 3'PFS AAC (mixed)
RNA 1: B1 RNA 1
RNA 2: B1 RNA 2 with U27G, A28C, A29U, U53A
B17: target 2 MT 5'PFS AAU 3'PFS CCG (mixed)
RNA 1: B1 RNA 1
RNA 2: B1 RNA 2 with U27A, A29U, A52C, U53C, C54G
B18: target 2 MT 5'PFS GAU 3'PFS AUA (mixed)
RNA 1: B1 RNA 1
RNA 2: B1 RNA 2 with U27G, A29U, C54A
B19: target 2 MT 5'PFS UAC 3'PFS CUA (mixed)
RNA 1: B1 RNA 1
RNA 2: B1 RNA 2 with A29C, A52C, C54A
B20: target 2 MT 5'PFS UCG 3'PFS CUA (mixed)
RNA 1: B1 RNA 1
RNA 2: B1 RNA 2 with A28C, A29G, A52C, C54A
B21: target 2 MT 5'PFS UUU 3'PFS CCU (mixed)
RNA 1: B1 RNA 1
RNA 2: B1 RNA 2 with A28U, A29U, A52C, U53C, C54U
B22: target 2 MT 5'PFS AAU 3'PFS CUG (mixed)
RNA 1: B1 RNA 1
RNA 2: B1 RNA 2 with U27A, A29U, A52C, C54G
B23: target 2 MT 5'PFS AAC 3'PFS CAU (mixed)
RNA 1: B1 RNA 1
RNA 2: B1 RNA 2 with U27A, A29C, A52C, U53A, C54U
B24: target 2 MT 5'PFS UAC 3'PFS CUG (mixed)
RNA 1: B1 RNA 1
RNA 2: B1 RNA 2 with A29C, A52C, C54G
B25: target 2 MT 5'PFS AAC 3'PFS CAG (mixed)
RNA 1: B1 RNA 1
RNA 2: B1 RNA 2 with U27A, A29C, A52C, U53A, C54G
B26: target 2 MT 5'PFS AGC 3'PFS CUC (mixed)
RNA 1: B1 RNA 1
RNA 2: B1 RNA 2 with U27A, A28G, A29C, A52C
B27: target 2 MT 5'PFS AAU 3'PFS CUU (mixed)
RNA 1: B1 RNA 1
RNA 2: B1 RNA 2 with U27A, A29U, A52C, C54U
B28: target 2 MT 5'PFS GCU 3'PFS AAU (mixed)
RNA 1: B1 RNA 1
RNA 2: B1 RNA 2 with U27G, A28C, A29U, U53A, C54U
B29: target 2 MT 5'PFS AGC 3'PFS CUU (mixed)
RNA 1: B1 RNA 1
RNA 2: B1 RNA 2 with U27A, A28G, A29C, A52C, C54U
B30: target 2 MT 5'PFS GCU 3'PFS AAG (mixed)
RNA 1: B1 RNA 1
RNA 2: B1 RNA 2 with U27G, A28C, A29U, U53A, C54G
B31: target 2 MT 5'PFS AAU 3'PFS CUC (mixed)
RNA 1: B1 RNA 1
RNA 2: B1 RNA 2 with U27A, A29U, A52C
B32: target 2 MT 5'PFS AAG 3'PFS UCU (mixed)
RNA 1: B1 RNA 1
RNA 2: B1 RNA 2 with U27A, A29G, A52U, U53C, C54U
B33: target 2 MT 5'PFS GGC 3'PFS AGC (mixed)
RNA 1: B1 RNA 1
RNA 2: B1 RNA 2 with U27G, A28G, A29C, U53G
B34: target 2 MT 5'PFS UUU 3'PFS CCA (mixed)
RNA 1: B1 RNA 1
RNA 2: B1 RNA 2 with A28U, A29U, A52C, U53C, C54A
B35: target 2 MT 5'PFS UAA 3'PFS AUU (mixed)
RNA 1: B1 RNA 1
RNA 2: B1 RNA 2 with C54U
B36: target 1 U3G,U8A (mixed)
RNA 1: CACCCGUGCAAAAAUGCAGGGGUCUAAAACUGAGCGGAUAACCUCUCUAUGG
RNA 2: GGGAAUGGAUCCACAUCUACGAAUUCGUACCAUAGAGAGGUUAACCGCGCACCGAGAUCGGAAGAGCACACGU
B37: target 1 C6A,A9U (mixed)
RNA 1: B36 RNA 1
RNA 2: B36 RNA 2 with A43U, A44U, C46A, G49U
B38: target 1 insC 3' of 20,insG 3' of 6 (mixed)
RNA 1: B36 RNA 1
RNA 2: GGGAAUGGAUCCACAUCUACGAAUUCGUACCACUAGAGAGGUUAUCCGGCUCACCGAGAUCGGAAGAGCACACGU

target: T1, EsCas13d, nuclease-dead; experiment: crRNA (strand 1, pre-loaded); Mg2+; 40 mM Tris-HCl pH 7.5, 150 mM NaCl, 6 mM MgCl2, 1 mM DTT, 0.1% Tween-20, 0.2 mg/ml BSA; 25 C; 10 min per concentration, then washed; settings: tags: His6-TwinStrep-SUMO cleaved; N-terminal SNAP kept (SNAP-Surface 488); label: 3' end held by stalled T7 RNA polymerase

Question: How did the Kd turn out when B1 was run?
Answer: The Kd was 5.1 ± 0.5 nM.

Question: How did the Kd turn out when B2 was run?
Answer: Its Kd is 16.5 ± 3.4 nM.

Question: With B3 as the binder, how does the Kd read?
Answer: The Kd was 10.5 ± 1.8 nM.

Question: How did the Kd turn out when B4 was run?
Answer: Its Kd is 14.9 ± 1.8 nM.

Question: With B5 as the binder, how does the Kd read?
Answer: Its Kd is 6.2 ± 2 nM.

Question: How did the Kd turn out when B6 was run?
Answer: Its Kd is about 7 nM.

Question: B7 was tested. Which Kd did it give?
Answer: The Kd was 8.6 ± 1.5 nM.

Question: Which Kd does the source give for B8 here?
Answer: The Kd was 16.3 ± 2.5 nM.

Question: For B9, which Kd is on record?
Answer: The Kd was 10.4 ± 2 nM.

Question: Which Kd does the source give for B10 here?
Answer: The Kd was 5.9 ± 1 nM.

Question: With B11 as the binder, how does the Kd read?
Answer: The Kd was 16 ± 6 nM.

Question: With B12 as the binder, how does the Kd read?
Answer: Its Kd is 11.8 ± 1.1 nM.

Question: For B13, which Kd is on record?
Answer: The Kd was 11.5 ± 0.8 nM.

Question: How did the Kd turn out when B14 was run?
Answer: Its Kd is 4.3 ± 0.6 nM.

Question: With B15 as the binder, how does the Kd read?
Answer: The Kd was 7.2 ± 1.1 nM.

Question: For B16, which Kd is on record?
Answer: Its Kd is 10.1 ± 1.9 nM.

Question: For B17, which Kd is on record?
Answer: Its Kd is 5.9 ± 0.7 nM.

Question: For B18, which Kd is on record?
Answer: Its Kd is 14 ± 6 nM.

Question: How did the Kd turn out when B19 was run?
Answer: The Kd was 6.8 ± 1 nM.

Question: For B20, which Kd is on record?
Answer: Its Kd is 32 ± 10 nM.

Question: B21 was tested. Which Kd did it give?
Answer: The Kd was 52 ± 15 nM.

Question: For B22, which Kd is on record?
Answer: Its Kd is 4.2 ± 0.5 nM.

Question: Which Kd does the source give for B23 here?
Answer: The Kd was about 8 nM.

Question: B24 was tested. Which Kd did it give?
Answer: Its Kd is 10.4 ± 1.7 nM.

Question: Which Kd does the source give for B25 here?
Answer: Its Kd is 3.6 ± 0.6 nM.

Question: With B26 as the binder, how does the Kd read?
Answer: The Kd was 11.5 ± 2.8 nM.

Question: How did the Kd turn out when B27 was run?
Answer: Its Kd is 9.4 ± 2 nM.

Question: With B28 as the binder, how does the Kd read?
Answer: Its Kd is 12 ± 4 nM.

Question: For B29, which Kd is on record?
Answer: Its Kd is 11.7 ± 1.5 nM.

Question: B30 was tested. Which Kd did it give?
Answer: The Kd was 11.3 ± 2 nM.

Question: How did the Kd turn out when B31 was run?
Answer: Its Kd is 7.3 ± 0.8 nM.

Question: For B32, which Kd is on record?
Answer: Its Kd is 20 ± 6 nM.

Question: With B33 as the binder, how does the Kd read?
Answer: The Kd was 12.1 ± 1.6 nM.

Question: B34 was tested. Which Kd did it give?
Answer: Its Kd is 18.1 ± 2.5 nM.

Question: With B35 as the binder, how does the Kd read?
Answer: The Kd was 3.9 ± 0.6 nM.

Question: For B36, which Kd is on record?
Answer: Its Kd is 12 ± 0.6 nM.

Question: For B37, which Kd is on record?
Answer: Its Kd is 7.38 ± 0.22 nM.

Question: For B38, which Kd is on record?
Answer: The Kd was 7.5 ± 0.4 nM.
